Results: patent US20100081620A1
Read-outs that look alike come from different tables or passages of the source. Blank lines part the entries; values can stand above or below the substance they belong to.

Legend:
ADAM 10 on IMPE cells = test: cell-based or functional assay
[1] = molecular target: ADAM 10 protein on Ramos cells, U937 cells and B cells; test: cell-based or functional assay
[2] = molecular target: mouse ADAM 10 catalytic domain (mouse) (UniProt O35598); test: enzyme inhibition ('unpublished observation')
[3] = molecular target: Human ADAM10 protease containing the catalytic/disintegrin domains (human) (UniProt O14672); test: enzyme inhibition, fluorescent peptide substrate
[4] = molecular target: Human TACE protease containing the catalytic/disintegrin domains (human) (UniProt P78536); test: enzyme inhibition, fluorescent peptide substrate
MMP 13 = test: enzyme inhibition, fluorescent peptide substrate
MMP 14 = test: enzyme inhibition, fluorescent peptide substrate
MMP 1 = test: enzyme inhibition, fluorescent peptide substrate
MMP 2 = test: enzyme inhibition, fluorescent peptide substrate
MMP 3 = test: enzyme inhibition, fluorescent peptide substrate
MMP 9 = test: enzyme inhibition, fluorescent peptide substrate
[5] = molecular target: TACE catalytic domain (human) (human) (UniProt P78536); test: enzyme inhibition, fluorescent peptide substrate
[6] = molecular target: human ADAM 9 catalytic/disintegrin domains (human) (UniProt Q13443); test: enzyme inhibition, fluorescent peptide substrate
[7] = molecular target: human ADAM 9 catalytic/disintegrin domains (human) (UniProt Q13443); test: enzyme inhibition, fluorescent peptide substrate; remark: listed apart in the source
[8] = molecular target: T1, ADAM 8 catalytic domain (mouse) (mouse) (UniProt Q05910); test: enzyme inhibition, fluorescamine assay with Dnp peptide substrate
T1 sequence (looked up): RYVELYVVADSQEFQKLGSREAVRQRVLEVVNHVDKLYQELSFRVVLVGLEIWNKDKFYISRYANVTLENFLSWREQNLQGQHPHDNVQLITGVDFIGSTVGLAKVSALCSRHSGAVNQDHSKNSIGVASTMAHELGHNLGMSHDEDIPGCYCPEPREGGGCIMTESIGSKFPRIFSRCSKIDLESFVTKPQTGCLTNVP

[9] = molecular target: Human TACE protease containing the catalytic/disintegrin domains (human) (UniProt P78536); test: cell-based or functional assay

Chain of Human TACE protease containing the catalytic/disintegrin domains (human) (P78536 215-671 limits assumed): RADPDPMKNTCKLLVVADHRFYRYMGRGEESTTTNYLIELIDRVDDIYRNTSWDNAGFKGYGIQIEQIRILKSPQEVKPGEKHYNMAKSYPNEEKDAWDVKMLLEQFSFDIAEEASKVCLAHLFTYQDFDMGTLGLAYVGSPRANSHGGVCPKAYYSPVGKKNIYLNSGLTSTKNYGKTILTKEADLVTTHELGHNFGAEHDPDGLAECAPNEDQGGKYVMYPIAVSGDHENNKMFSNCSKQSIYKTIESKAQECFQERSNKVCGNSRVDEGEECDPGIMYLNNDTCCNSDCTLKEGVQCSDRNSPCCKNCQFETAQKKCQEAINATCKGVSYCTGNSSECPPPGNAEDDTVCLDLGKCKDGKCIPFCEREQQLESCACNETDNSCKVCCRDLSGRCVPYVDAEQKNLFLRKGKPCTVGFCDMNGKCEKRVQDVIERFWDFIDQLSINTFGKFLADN
Chain of human ADAM 9 catalytic/disintegrin domains (human) (Q13443 206-697 limits assumed): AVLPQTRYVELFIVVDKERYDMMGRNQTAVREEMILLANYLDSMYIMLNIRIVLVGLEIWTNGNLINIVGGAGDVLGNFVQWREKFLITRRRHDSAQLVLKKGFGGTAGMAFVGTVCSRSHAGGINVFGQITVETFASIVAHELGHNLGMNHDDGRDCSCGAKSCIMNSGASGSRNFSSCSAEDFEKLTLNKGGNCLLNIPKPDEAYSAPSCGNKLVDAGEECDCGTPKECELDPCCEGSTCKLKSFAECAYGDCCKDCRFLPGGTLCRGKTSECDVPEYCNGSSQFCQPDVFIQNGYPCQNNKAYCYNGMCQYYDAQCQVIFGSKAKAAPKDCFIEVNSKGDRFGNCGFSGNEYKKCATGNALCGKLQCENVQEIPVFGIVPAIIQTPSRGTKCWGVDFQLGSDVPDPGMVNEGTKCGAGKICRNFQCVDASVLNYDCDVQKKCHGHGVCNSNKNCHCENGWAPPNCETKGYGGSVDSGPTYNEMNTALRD
Chain of TACE catalytic domain (human) (human) (P78536 215-477 limits assumed): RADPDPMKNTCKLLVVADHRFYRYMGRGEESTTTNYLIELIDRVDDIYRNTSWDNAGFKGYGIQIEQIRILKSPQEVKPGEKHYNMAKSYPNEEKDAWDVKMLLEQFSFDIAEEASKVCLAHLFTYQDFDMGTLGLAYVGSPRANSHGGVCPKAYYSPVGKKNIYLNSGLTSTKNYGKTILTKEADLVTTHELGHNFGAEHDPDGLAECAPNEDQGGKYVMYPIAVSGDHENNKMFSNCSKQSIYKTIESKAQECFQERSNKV
Chain of mouse ADAM 10 catalytic domain (mouse) (O35598 215-457 limits assumed): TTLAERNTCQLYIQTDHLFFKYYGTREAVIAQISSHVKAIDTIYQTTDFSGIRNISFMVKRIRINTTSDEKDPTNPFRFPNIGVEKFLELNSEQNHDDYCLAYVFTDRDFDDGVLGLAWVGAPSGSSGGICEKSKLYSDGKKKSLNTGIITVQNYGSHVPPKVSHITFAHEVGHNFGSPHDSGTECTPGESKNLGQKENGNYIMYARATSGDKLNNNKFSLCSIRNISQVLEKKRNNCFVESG
Chain of Human ADAM10 protease containing the catalytic/disintegrin domains (human) (O14672 214-672 limits assumed): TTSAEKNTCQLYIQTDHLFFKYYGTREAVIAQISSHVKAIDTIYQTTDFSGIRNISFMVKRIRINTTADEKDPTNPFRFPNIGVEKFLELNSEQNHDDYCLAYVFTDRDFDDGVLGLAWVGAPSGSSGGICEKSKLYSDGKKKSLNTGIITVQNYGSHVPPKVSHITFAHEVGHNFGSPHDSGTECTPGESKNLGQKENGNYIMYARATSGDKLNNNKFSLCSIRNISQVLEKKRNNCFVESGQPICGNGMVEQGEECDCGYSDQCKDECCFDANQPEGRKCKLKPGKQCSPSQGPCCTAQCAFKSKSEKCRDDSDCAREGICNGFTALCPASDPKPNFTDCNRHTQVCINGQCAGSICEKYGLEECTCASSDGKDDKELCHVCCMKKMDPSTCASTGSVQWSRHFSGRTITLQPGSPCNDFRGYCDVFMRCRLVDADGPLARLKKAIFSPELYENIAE
Chain of MMP 3 (P08254 100-477): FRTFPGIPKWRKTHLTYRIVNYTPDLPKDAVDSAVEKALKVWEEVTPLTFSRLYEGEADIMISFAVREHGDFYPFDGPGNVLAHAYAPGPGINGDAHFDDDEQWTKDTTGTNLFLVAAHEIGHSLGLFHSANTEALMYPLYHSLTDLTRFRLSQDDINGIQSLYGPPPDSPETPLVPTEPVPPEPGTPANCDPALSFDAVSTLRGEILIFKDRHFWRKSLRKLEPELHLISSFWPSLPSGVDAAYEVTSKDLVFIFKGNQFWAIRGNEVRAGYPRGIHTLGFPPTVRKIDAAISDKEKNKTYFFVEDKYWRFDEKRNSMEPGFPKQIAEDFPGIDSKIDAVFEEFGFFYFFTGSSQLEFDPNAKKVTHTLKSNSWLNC
Chain of MMP 9 (P14780 107-707): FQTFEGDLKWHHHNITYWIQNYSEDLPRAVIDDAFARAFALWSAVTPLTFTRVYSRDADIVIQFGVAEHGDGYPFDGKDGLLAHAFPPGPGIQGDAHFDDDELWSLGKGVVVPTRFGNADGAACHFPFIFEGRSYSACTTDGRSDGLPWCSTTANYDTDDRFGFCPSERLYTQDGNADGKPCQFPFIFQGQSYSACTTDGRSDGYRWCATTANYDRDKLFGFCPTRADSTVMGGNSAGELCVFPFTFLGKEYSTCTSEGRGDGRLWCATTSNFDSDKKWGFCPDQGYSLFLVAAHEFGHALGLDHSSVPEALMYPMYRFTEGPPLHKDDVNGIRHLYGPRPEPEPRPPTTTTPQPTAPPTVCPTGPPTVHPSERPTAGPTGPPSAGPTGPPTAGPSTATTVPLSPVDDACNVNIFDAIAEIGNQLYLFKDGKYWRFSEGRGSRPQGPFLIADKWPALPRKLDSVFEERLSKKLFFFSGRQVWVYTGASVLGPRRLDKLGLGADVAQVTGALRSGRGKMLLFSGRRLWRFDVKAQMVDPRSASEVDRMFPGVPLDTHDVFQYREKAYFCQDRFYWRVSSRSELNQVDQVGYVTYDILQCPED
Chain of MMP 1 (P03956 100-469): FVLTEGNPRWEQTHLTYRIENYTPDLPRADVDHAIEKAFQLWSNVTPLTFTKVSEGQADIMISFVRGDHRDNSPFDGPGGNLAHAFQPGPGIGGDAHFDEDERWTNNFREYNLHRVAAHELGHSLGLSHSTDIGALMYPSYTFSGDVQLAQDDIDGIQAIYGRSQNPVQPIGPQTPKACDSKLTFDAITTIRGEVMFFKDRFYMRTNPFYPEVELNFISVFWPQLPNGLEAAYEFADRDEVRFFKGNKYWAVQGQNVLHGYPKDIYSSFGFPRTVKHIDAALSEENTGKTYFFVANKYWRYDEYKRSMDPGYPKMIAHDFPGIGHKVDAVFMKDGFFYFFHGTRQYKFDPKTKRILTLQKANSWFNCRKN
Chain of MMP 2 (P08253 110-660): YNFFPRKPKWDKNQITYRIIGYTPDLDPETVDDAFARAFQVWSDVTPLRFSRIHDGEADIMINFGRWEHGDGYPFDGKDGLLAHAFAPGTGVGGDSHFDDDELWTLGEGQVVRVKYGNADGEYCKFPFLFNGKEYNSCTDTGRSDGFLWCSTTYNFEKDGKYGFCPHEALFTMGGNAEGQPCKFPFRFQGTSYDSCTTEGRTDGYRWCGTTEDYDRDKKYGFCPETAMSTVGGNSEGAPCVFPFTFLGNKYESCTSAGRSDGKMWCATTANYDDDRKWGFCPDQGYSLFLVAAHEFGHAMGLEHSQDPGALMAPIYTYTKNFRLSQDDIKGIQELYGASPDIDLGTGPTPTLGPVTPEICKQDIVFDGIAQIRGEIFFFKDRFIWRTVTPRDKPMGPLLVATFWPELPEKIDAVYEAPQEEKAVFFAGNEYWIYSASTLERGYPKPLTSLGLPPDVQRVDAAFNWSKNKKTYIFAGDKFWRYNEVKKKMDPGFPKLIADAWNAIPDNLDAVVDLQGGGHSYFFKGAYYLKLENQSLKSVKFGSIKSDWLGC

inhibition of calcium ionophore induced betacellulin shedding (BTC ELISA) (ADAM 10 on IMPE cells): 67 % (at 15 µM)
inhibition of calcium ionophore induced betacellulin shedding (BTC ELISA) (% (at 1.5 µM)) (ADAM 10 on IMPE cells): 25
inhibition of constitutive betacellulin shedding (BTC ELISA) (ADAM 10 on IMPE cells): 90 % (at 15 µM)
inhibition of constitutive betacellulin shedding (BTC ELISA) (% (at 1.5 µM)) (ADAM 10 on IMPE cells): 75
Substance: ADAM10 prodomain (betacellulin shedding assay, construct not specified)

inhibition of CD23 shedding in Ramos cells (soluble CD23 ELISA) [1]: 30%
inhibition of CD23 shedding in U937 cells (soluble CD23 ELISA) [1]: 30%
Ki [2]: 17 nM
Ki [3]: 36 nM
Ki [4]: > 3000 nM
Ki (MMP 13): > 2000 nM
Ki (MMP 14): > 2000 nM
Ki (MMP 1): > 2000 nM
Ki (MMP 2): > 2000 nM
Ki (MMP 3): > 2000 nM
Ki (MMP 9): > 2000 nM
Ki [5]: > 3000 nM
Ki [6]: > 1000 nM
Ki [7]: 1000 nM
Ki [8]: > 10000 nM
Substance: C173S ProADAM 10 23-213 (C-terminal His tag) (from UniProt O35598 23-213)

prodomain inhibition of enzyme activity (percent) [9]: 0%
Substance: Pro ADAM 17 (mouse) (from UniProt Q9Z0F8 18-214)
